Experiments:
[1] = target: Spike protein of SARS-CoV-2 strain D614G (hCoV-19/France/GE1973/2020) (SARS-CoV-2, UniProt P0DTC2 14-1273); assay: cell-based or functional assay
[2] = target: Spike protein of SARS-CoV-2 strain XBB.1.5 (GISAID EPI_ISL_16353849) (SARS-CoV-2); assay: cell-based or functional assay
[3] = target: Spike protein of SARS-CoV-2 strain XBB.1.16 (hCoV-19/France/GES-IPP7712/2023) (SARS-CoV-2); assay: cell-based or functional assay
[4] = target: Spike protein of SARS-CoV-2 strain BA.2.86 (hCoV-19/France/IDF-IPP17625/2023) (SARS-CoV-2); assay: cell-based or functional assay
[5] = target: Spike protein of SARS-CoV-2 strain EG.5.1 (hCoV-19/France/GES-IPP15954/2023) (SARS-CoV-2); assay: cell-based or functional assay
[6] = target: Spike protein of SARS-CoV-2 strain JN.1 (hCoV-19/France/HDF-IPP21391/2023) (SARS-CoV-2); assay: cell-based or functional assay
[7] = target: T1, recombinant SARS-CoV-2 Spike RBD domain, Delta variant (SARS-CoV-2); assay: ELISA on coated RBD
T1 construct: also called RBD Delta variant

[8] = target: T2, recombinant SARS-CoV-2 Spike RBD domain, BA.2 variant (SARS-CoV-2); assay: ELISA on coated RBD
T2 construct: also called RBD BA.2. variant

[9] = target: T3, recombinant SARS-CoV-2 Spike RBD domain, BA.2.75.2 variant (SARS-CoV-2); assay: ELISA on coated RBD
T3 construct: also called RBD BA.2.75.2 variant

[10] = target: T4, recombinant SARS-CoV-2 Spike RBD domain, BA.4/5 variant (SARS-CoV-2); assay: ELISA on coated RBD
T4 construct: also called RBD BA.4/5 variant

[11] = target: T5, recombinant SARS-CoV-2 Spike RBD domain, BQ.1.1 variant (SARS-CoV-2); assay: ELISA on coated RBD
T5 construct: also called RBD BQ.1.1. variant

[12] = target: T6, recombinant SARS-CoV-2 Spike RBD domain, XBB.1.5 variant (SARS-CoV-2); assay: ELISA on coated RBD
T6 construct: also called RBD XBB.1.5 variant

[13] = target: T7, recombinant SARS-CoV-2 Spike RBD domain, XBB.1.16 variant (SARS-CoV-2); assay: ELISA on coated RBD
T7 construct: also called RBD XBB.1.16 variant

[14] = target: T8, recombinant SARS-CoV-2 Spike RBD domain, EG.5 variant (SARS-CoV-2); assay: ELISA on coated RBD
T8 construct: also called RBD EG.5.1 variant

[15] = target: T9, recombinant SARS-CoV-2 Spike RBD domain, BA.2.86 variant (SARS-CoV-2); assay: ELISA on coated RBD
T9 construct: also called RBD BA.2.86 variant

[16] = target: T10, recombinant SARS-CoV-2 Spike RBD domain, JN-1 variant (SARS-CoV-2); assay: ELISA on coated RBD
T10 construct: also called RBD JN-1 variant

[17] = target: T1, recombinant SARS-CoV-2 Spike RBD …; assay: competition ELISA, blocking of RBD binding to ACE2 ectodomain
[18] = target: T2, recombinant SARS-CoV-2 Spike RBD …; assay: as above
[19] = target: T3, recombinant SARS-CoV-2 Spike RBD …; assay: as above
[20] = target: T4, recombinant SARS-CoV-2 Spike RBD …; assay: as above
[21] = target: T5, recombinant SARS-CoV-2 Spike RBD …; assay: as above
[22] = target: T6, recombinant SARS-CoV-2 Spike RBD …; assay: as above
[23] = target: T7, recombinant SARS-CoV-2 Spike RBD …; assay: as above
[24] = target: T8, recombinant SARS-CoV-2 Spike RBD …; assay: as above
[25] = target: T9, recombinant SARS-CoV-2 Spike RBD …; assay: as above
[26] = target: T10, recombinant SARS-CoV-2 Spike RBD …; assay: as above

Row | Binder | IC50, S-Fuse neutralization of live virus [1] | IC50, S-Fuse neutralization of live virus [2] | IC50, S-Fuse neutralization of live virus [3] | IC50, S-Fuse neutralization of live virus [4] | IC50, S-Fuse neutralization of live virus [5] | IC50, S-Fuse neutralization of live virus [6] | Binding AUC [7] | Binding AUC [8] | Binding AUC [9] | Binding AUC [10] | Binding AUC [11] | Binding AUC [12] | Binding AUC [13] | Binding AUC [14] | Binding AUC [15] | Binding AUC [16] | Blocking % [17] | Blocking % [18] | Blocking % [19] | Blocking % [20] | other results
1 | SPK002 antibody (parental version Cv2.3194 described in WO 2022/228827) (antibody, V domains shown) VH: EVQLVESGGGLIQPGGSLRLSCAASGITVTSNYMSWVRQAPGKGLEWVSVIYPGGSTFYADSVKGRFTISRDNSKNTLYLQMNSLRAEDTAVYYCARDLVVYGMDVWGQGTTVTVS VL: EIVLTQSPGTLSLSPGERATLSCRASQSVSSSYLAWYQQKPGQAPRLLIYGASSRATGIPGRFSGSGSGTDFTLTISRLEPEDFAIYYCQQGVTFGGGTKVEIK | 0.09 µg/mL | 216 µg/mL | 156 µg/mL | 100 µg/mL | 100 µg/mL | 100 µg/mL |  |  |  |  |  |  |  |  |  |  |  |  |  |  | 
2 | SPK002M A3 antibody (antibody, human IgG1, kappa, V domains shown) VH: EVQLVESGGGLIQPGGSLRLSCAASTITVTSNYMSWVRQAPGKGLEWVSVIYPGGSTFYADSVKGRFTISADNSKNTLYLQMNSLRAEDTAVYYCARDLVVYGMDVWGQGTTVTVSS VL: EIVLTQSPGTLSLSPGERATLSCRASQSVSSSYLAWYQQKPGQAPRLLIYGASSRATGIPGRFSGSGSGTDFTLTISRLEPEDFAVYYCQQGVTFGGGTKVEIKR | 0.11 µg/mL | 0.12 µg/mL | 0.36 µg/mL | 0.05 µg/mL | 5.92 µg/mL | 76.3 µg/mL | 31 | 32 | 34 | 30 | 30 | 35 | 31 | 34 | 38 | 26 | 95% | 94% | 96% | 96% | Blocking % [21]: 96%; Blocking % [22]: 95%; Blocking % [23]: 95%; Blocking % [24]: 79%; Blocking % [25]: 85%; Blocking % [26]: 0%
3 | SPK002M A4 antibody (antibody, human IgG1, kappa, V domains shown) VH: EVQLVESGGGLIQPGGSLRLSCAASVITVTSNYMSWVRQAPGKGLEWVSVIYPGGSTFYADSVKGRFTISADNSKNTLYLQMNSLRAEDTAVYYCARDLVVYGMDVWGQGTTVTVSS VL: EIVLTQSPGTLSLSPGERATLSCRASQSVSSSYLAWYQQKPGQAPRLLIYGASSRATGIPGRFSGSGSGTDFTLTISRLEPEDFAVYYCQQGVTFGGGTKVEIKR | 0.11 µg/mL | 0.12 µg/mL | 0.36 µg/mL | 0.04 µg/mL | 2.8 µg/mL | 54.6 µg/mL | 31 | 29 | 34 | 30 | 30 | 35 | 30 | 34 | 38 | 31 | 93% | 93% | 96% | 96% | Blocking % [21]: 96%; Blocking % [22]: 95%; Blocking % [23]: 95%; Blocking % [24]: 80%; Blocking % [25]: 80%; Blocking % [26]: 2%
4 | SPK002M A2 antibody (antibody, human IgG1, kappa, V domains shown) VH: EVQLVESGGGLIQPGGSLRLSCAASTITVTSNYMSWVRQAPGKGLEWVSVIYPGGSTFYADSVKGRFTISADNSKNTLYLQMNSLRAEDTAVYYCARDLVVYGMDVWGQGTTVTVSS VL: EIVLTQSPGTLSLSPGERATLSCRASQGVSSSYLAWYQQKPGQAPRLLIYGASSRATGIPGRFSGSGSGTDFTLTISRLEPEDFAVYYCQQGVTFGGGTKVEIKR | 0.1 µg/mL | 0.1 µg/mL | 0.33 µg/mL | 0.05 µg/mL | 1.65 µg/mL | 25.3 µg/mL | 31 | 32 | 34 | 30 | 30 | 36 | 31 | 35 | 38 | 37 | 95% | 94% | 96% | 97% | Blocking % [21]: 97%; Blocking % [22]: 96%; Blocking % [23]: 96%; Blocking % [24]: 88%; Blocking % [25]: 85%; Blocking % [26]: 1%
5 | SPK002M A1 antibody (antibody, human IgG1, kappa, V domains shown) VH: EVQLVESGGGLIQPGGSLRLSCAASTITVTSNYMSWVRQAPGKGLEWVSVIYPGGSTFYADSVKGRFTISADNSKNTLYLQMNSLRAEDTAVYYCARDLVVYGMDVWGQGTTVTVSS VL: EIVLTQSPGTLSLSPGERATLSCRASQGFSSSYLAWYQQKPGQAPRLLIYGASSRATGIPGRFSGSGSGTDFTLTISRLEPEDFAVYYCQQGVTFGGGTKVEIKR | 0.08 µg/mL | 0.07 µg/mL | 0.17 µg/mL | 0.02 µg/mL | 0.15 µg/mL | 1.28 µg/mL | 31 | 33 | 34 | 31 | 30 | 35 | 30 | 35 | 37 | 39 | 94% | 95% | 96% | 97% | Blocking % [21]: 97%; Blocking % [22]: 97%; Blocking % [23]: 97%; Blocking % [24]: 90%; Blocking % [25]: 85%; Blocking % [26]: 71%
6 | SPK002M A6 antibody (antibody, human IgG1, kappa, V domains shown) VH: EVQLVESGGGLIQPGGSLRLSCAASGITVTSNYMSWVRQAPGKGLEWVSVIYPGGSTFYADSVKGRFTISADNSKNTLYLQMNSLRAEDTAVYYCARDLVVYGMDVWGQGTTVTVSS VL: EIVLTQSPGTLSLSPGERATLSCRASQSVSSSYLAWYQQKPGQAPRLLIYGASSRATGIPGRFSGSGSGTDFTLTISRLEPEDFAIYYCQQGVTFGGGTKVEIKR | 0.07 µg/mL | 0.36 µg/mL | 1.34 µg/mL | 0.63 µg/mL | 21.1 µg/mL | 100 µg/mL |  |  |  |  |  |  |  |  |  |  |  |  |  |  | 
